Test: yeast display, Sf9 membrane polyspecificity reagent, FACS + sequencing; frameworks hold sequencing errors
Procedure, shortened: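 Using colony PCR, genes from sorted yeast display clones were amplified, then sequenced on MiSeq at 2 × 250 and filtered by CDR length. The clones had been stained with 10% biotinylated, detergent-solubilized Sf9 membrane reagent for 1 hour at 4 °C and sorted by FACS into low and high (top ~1%) gates on anti-HA and streptavidin fluorescence. Polyreactivity labels come from the gate of origin.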

Row | Sequence | polyreactivity (PSR sort gate)
1 | QVQLVESGGGLVQAGGSLRLSCAASGSTFDWYAMGWYRQAPGKERELVATIRYRGGTSYADSVKGRFTISRDNEKNTVYLQMNSLKPEDTAVYYCNAQLYIFDDSYNYWGFDYWGQGTQVTVSS | high polyreactivity
2 | QVQLVESGGGLVQAGGSLRLSCAASGITFDYYAMGWYRQAPGKERELVAAITSRGGSTYYADSVKGRFTISRDNAKNTVYLQMNSLKPEDTAVYYCAAVRSGYYNYWGQGTQVTVSS | high polyreactivity
3 | QVQLVESGGGLVQAGGSLRLSCAASGSTFQVYGMGWYRQAPGKERELVAAISRSGGRTYYADSVKGRFTISRDNAKNTVYLQMNSLKPEDTAVYYCAKTYQTTTSKSGYYYWGQGTQVTVSS | high polyreactivity
4 | QVQLVESGGGLVQAGGSLRLSCAASGRIFTYNAMGWYRQAPGKERELVAAISYSGGRTDYADSVKGRFTISRDNAKNTVYLQMHSLKPEDTAVYYCAARPGPYWTVTFRSPKYYYWGQGTQVTVSS | high polyreactivity
5 | QVQLVESGGGLVQAGGSLRLSCAASGLTFWYYAMGWYRQAPGKERELVAAITISGGSTYYADSVKGRFTISRDNAKNTVYLQMNRLQPEDTAVYYCAKTFSYTGRYWGYDYWGKGTQVTVSS | high polyreactivity
6 | QVQLVESGGALVQAGGSLRLSCAASGSTFNRYAMGWYRQAPGKERELVAAISASGGSTYYADSVKGRFTISRDNAKNTVYLQMNSLKPEDTAVYYCATLHYVGQEHDYWGQGTQVTVSS | low polyreactivity
7 | QVQLVESGAGLVQAGGSLRLSCAASGRILSHYAMGWYRQAPGKERELVATINSGGSTYYADSVKGRFTISRDNAKNTVYLQMNSLKPEDTAVYYCAVDYAVSYAGWVLRYDYWGQATQVTVSS | low polyreactivity
8 | QVQLVESGGGLVKAGGSLRLSCAASGSIFTRNAMGWYRQAPGKERELVAAIRSRGGSTYYADSVKGRFTISRDNAKNTVYLQMNSLKPEDNAVYYCAKKDNTYIFDYWGQGTQVTVSS | low polyreactivity
9 | QVQLVESGGGLVQAGGSLRLSFASSGRIFIAYAMGWYRQAPGIERELVAAITSGGGTYYADSVKGRFTISRDNAKNTVYLQMNSLKPVDTAVYYCAAACGRRYPDKFVAITPTYDFWGQGTQVTVSS | low polyreactivity
10 | QVQHVESRGGLVQAGGSLRLSCAASGRIFPRYAMGWYRQAPGKERELVAAISWSGGSTYYADSVKGRFTISRDNAKNTVYLQMNSLKPEDTAVYYCAARGRLRYSGSIIYYWGQGTQVTVSS | high polyreactivity
11 | QVQLVESGGGLVQAGGSLRLSCAASGSTFVNNAMGWYRQAPGKERELVAAISKTGGRTRYADSVKGRFTISRDNAKNTVYLQMNSLKPEDTAVYYCAARYYGGGYNYWGQGTQVTVSS | high polyreactivity
12 | QVQLVESGGGLVQAGGSLRLSCAASGSTYYFYPMGSYRQAPGKERELVAAISFTDTSTYYADSVQGRFTISRDNAKNTVYLQMNSLKPEDTAVYYCAARYAGGYYYWGQGTQVTVSS | high polyreactivity
13 | QVQLVESGGGLVQAGGSLRLSCAASGGTIGYNAMGWYRQAPGKERELVAAISWSGGTTYYADSVKGRFTISRDNAKNTVYLQMNSLKPEDTAVYYCNVYSRGRDDWGQGTQVTVSS | high polyreactivity
14 | QVQLVESGGGLVQAGGSLRLSCAASGFTFSYYALGWYRQAPGKERELVAVISDRGGITYYADSVKGRFTISRDNAKNTVYLQMNSRKPEDTAVYYCAAQNPRYNYRYYYWGQGTQVTVSS | low polyreactivity
15 | QVQLVESGGGLVQAGGSLRLSCAASGSIFVGNAMGWYIQAPGKERELVAAISRSGGSTYYADSVKGRFTISRDNAKNTVYLQMNSLKPEDTAVYYCAAVRKQGSGFDYWGQGTQVTVSS | high polyreactivity
16 | QVQLVESGGGLVQAGGSLRLSCAASGGTFPYYAMGWYRQAPGKERELVADISGTDGSTYYADSVKGRFTISRDNAKTTVYLQMNSLKPEDTAVYYCNADPHWWYWDYDYWGQGTQVTVSS | high polyreactivity
17 | QVQLVESGGGLVQAGGSLRLSCAASGFTFYSNAMGWYRQAPGKERELVATIRYRGGSTYADSVKGRFTISRDNAKNTVYLQMNSLKPEDTAVYYCAARKYRSFRQRTGDYWGQGTQVTVSS | high polyreactivity
18 | QVQLVESGGGLVQAGGTLRLSCAASGSIFAHYTMGWYRQAPGKERELVAVISRSGARTYYADSVKGRFTISRDNAKNTVYLQMNSLKPEDTAVYYCAADRTLEEDYWGQGTQVTVSS | low polyreactivity
19 | QVQLVESGGGLVQAGGSLRLSCAASGRTLSGYVMGWYRQAPGKERELVATISNGGSTYYADSVKGRFTISRDNAKNTVYLQMNSLKPEDTAVYYCNRYWYRKHSTDPPVRYRPVGYWGQGTQVTVSS | high polyreactivity
20 | QVQLVESGGGLVQAGGSLRLSCAASGSIFTFYAMGWYRQAPGKERELVASITSGAGITYYADSVKGRFTISRDNAKNTVYLQMNSLKPEDTAVYYCAADWSGDFFTDGYWGQGTQVTVSS | low polyreactivity
21 | QVQLVDSGGGLVQAGASLRLSCAASGIIFWSYTMGWYRQAPGKERELVAAINWSGTRTYYADSVKGRFTISRDNAKNTVYLQMNSLKTEDTAVYYCNADSRYRSFDYWGQGTQVTVSS | high polyreactivity
22 | QVQLVESGGGLVQAGGSLRLSCAASGRIIYNAMGWYRQAPGKERELVAAITSNGCSTYYADSVKGLFTISRDTAKNTVYLQMNSLKPEDTAVYYCARDVNSVPSEVKYDYWGQGTQVNVSS | low polyreactivity

Row | Sequence | polyreactivity (PSR sort gate)
23 | QVQLVVSGGGLVQAGGSLRLSCAASGRIFLWNAMGWYRQAPGKERDLVAAISSGGGTNYADSVKGRFTISRDNAKNSVYLQMNSLKPEDTAVYYCAARRTYRFGWGQGTQVTVSS | high polyreactivity
24 | QVQLVESGGGLVQAGGSLRLSCAASGSIFSDNVMGGYRQAPGKERELVAAIRDGDTTNYADSVKGRFTISRDNAKNTVYLQMNSLKPEDTAVYYCATRNTWYHRGYDYWGQGTQVTVSS | low polyreactivity
25 | QVQLVESGGGLVQAGGSLRLSCAASGSTFNLYAMGWYRQAPGKERELVAAISDGDSSTYYADSVKGRFTISRDNAKNTVYLQMNSLKPEDTAVYYCNARDDVYLITPYFLVYVNLDYWGQGTQVTVSS | low polyreactivity
26 | QVQLVEYGGGLDQAGGSLRLSCAAYGLTFSPYAMGWYRQAPGKEMELVATITIGGSTKYADSVKGRVTISRDNAKNTVYLQMNSLKPEDTAVYYCAVRSGYVTRRYDYWGQGTQVTVSS | low polyreactivity
27 | QVQLVESGGGLVQAGGSLRLSCAASGFTFGRYAMGWYRQAPGKERELVAAITSRGGSTYYADSVKGRFTISRDNAKNTVYLQMNSLKPEDTAVYYCNRDLVDSYGYWGQGTQVTVSS | high polyreactivity
28 | QVQLVESGGGLVQAGGSLRLSCAASGSIFRSYALGGYRQAPGKERELVASISRRGGSTYYADSVKGRFTISRDNAKNTVYLQMNSLKPQDTAVYYCAAVRYNSRGSTTPSEMYYWGQGTQVTVSS | low polyreactivity
29 | QVQLVESGGGLVQAGGSLRLSCAASGRTFVSYVMGWYRQAPGKERELVAAITWRGGSTYYADSVKGRFTISRDNAKNTVYLQMNSLKPEDTAVYYCAAPSHGSTSDRYYKFYYWGQGTQVTVSS | high polyreactivity
30 | QVQLVESGAGLVQAGGSLRLSCAASGSTFGKYAMGWYTQAPGKEMELVARIDSGDGTYYADSVKGRFTISRDNAKNTVYLQMNSLKPEDTAVYYCAARYGARRLTYFWPQYARYDYWGQGTKVTVSS | high polyreactivity
31 | QVQRVESGGGLVQAGGSLSLSCAASGRTCGVYAMGWYRQAPGKERELGASSSRSAGSTYYADSVKGRFTISRDNAKNTVYFQMNSLKTEDTAVYYCAAVYKRGMDYWGQGTQVTVSS | high polyreactivity
32 | QVQLVESGGGLVQAGGSLRLSCAASGSISIKNAMGWYSQAPGKERELVATITYNGGSTYYADSVKGRFTISRDNAKNTVYLQMNSLKPEDTAVYYCSAGYLYYAEYDYWGQGTQVTVSS | low polyreactivity
33 | QVQLVESGGGLVQAGGSLRLSCAASGITFRGYARGWYRQAPGKERELVASITNTDSTYYADSVKGRFTISRDNAKNTVYLQMNSLKPEDTAVYYCAARRGRKYGYWGQGTQVTVSS | high polyreactivity
34 | QVQLVESGGGLVQAGGSLRLSCAASGSTLVDNGMGWYRHAPGKERELVASISSDGSTNYADSVKGRFTISRDNAKYTVYLQMNSLKTEDPAVYYCAADEGTGQASLSSNLSDYWGQGTQVTVSS | low polyreactivity
35 | QVQHVESGGGLVQAGGSLRLSCAASGSTFVGNAMGWYRQAPGKERELVADITSGGSTNYADSVKGRFTISRDNAKNTVYLQMNSLKPEDTAVYYCAAVYLWSQRREFWGQGTQVTVSS | low polyreactivity
36 | QVQLVESGGGLVQAGGSLRLSCAASGSTFVVNAMGWYRPAPGKERELVAAIDGSDGSTYYADSVKGRFTISRDNAKNTVYFQMNSLKPEDTAVYYCAAEVLGRPDVENDYWGQGTQVTVSS | low polyreactivity
37 | QVQLVESGGGLVQAGGSLRLSCAASGSILSFNAMGWDRQAPGNERELVAAISRGGSTNYADSVKGRFTISRDNAKNTVYLQMNSLKPEDTAVYYCAAVQYRYSTRWARRAYDYWGQGTQVTVSS | high polyreactivity
38 | QVQLVESGGGLVQAGGSLRLSCAASGKIFFRYTLGWYRQAPGKERELVAAISASGGSTYYADSVKGRFTISRDNAKNTVYLQMNSLKPEDTSVYYCAARILHYTSEYYYWGQGTQVTVSS | low polyreactivity
39 | QVQLVESGRGLVQAGGSLRLSCAASGRIFFYYAMGWYREAPGKERELVATISYSGGGTYYADSVKGRFTISRDNAKNTVYLQMNSLKPEDTAVYYCNARWGTPYYIQDFDYWGQGTQVTVSS | low polyreactivity
40 | QVQLVESGGGLVQAGGILRLSCAASGSIFLYNALGWYRQAPGKERELVAAISKSGGSTYYADSVKGRFTISRDNAKNTVYLQMNSLKPEDTAVYYCAAGYGRLIRYGSDYDYWGQGTQVTVSS | low polyreactivity
41 | QVQLVESGGGLVQAGGSLRLSCAASGYIFARYAMGWYRQAPGKERELVASISRRGTSTYYADSVKGRFTISRDNAKNTDYLQMNSLKPEDTAVYYCNKEYYIYRTGTIGERSDMGYWGQGTQVTVSS | high polyreactivity
42 | QVQLVESGGGLVQAGGSLRLSCAASGRTFGRYAMGWYRQAPGKERELVAAINSGSASTYYADSVKGRFTISRDNAKNTVYLEMNSLKPEDPAVYYCAKRVQQSTWYGYGIGYEYWGQGTQVTVSS | high polyreactivity
43 | QVQLVESGGGLVQAGGSLRLSCAASGRIFYNYAMGWYRQAPGKERELVAAISGSGGSTYYADSVKGRFTISRDNAKNTVYLQMNSLKPEDTAVYYCAADSYVSPEVRFDYWGQGTQVTVSS | low polyreactivity
